From publication PMC2821024

Biological target: HuM7AIQ2 heavy chain, wild-type (human myosin VIIa Met1-Arg796, motor domain plus two IQ motifs) (human) (UniProt Q13402)
Experiment: co-purification on anti-FLAG resin, SDS-PAGE densitometry

Sequence of UniProt Q13402 (Q13402 1-796): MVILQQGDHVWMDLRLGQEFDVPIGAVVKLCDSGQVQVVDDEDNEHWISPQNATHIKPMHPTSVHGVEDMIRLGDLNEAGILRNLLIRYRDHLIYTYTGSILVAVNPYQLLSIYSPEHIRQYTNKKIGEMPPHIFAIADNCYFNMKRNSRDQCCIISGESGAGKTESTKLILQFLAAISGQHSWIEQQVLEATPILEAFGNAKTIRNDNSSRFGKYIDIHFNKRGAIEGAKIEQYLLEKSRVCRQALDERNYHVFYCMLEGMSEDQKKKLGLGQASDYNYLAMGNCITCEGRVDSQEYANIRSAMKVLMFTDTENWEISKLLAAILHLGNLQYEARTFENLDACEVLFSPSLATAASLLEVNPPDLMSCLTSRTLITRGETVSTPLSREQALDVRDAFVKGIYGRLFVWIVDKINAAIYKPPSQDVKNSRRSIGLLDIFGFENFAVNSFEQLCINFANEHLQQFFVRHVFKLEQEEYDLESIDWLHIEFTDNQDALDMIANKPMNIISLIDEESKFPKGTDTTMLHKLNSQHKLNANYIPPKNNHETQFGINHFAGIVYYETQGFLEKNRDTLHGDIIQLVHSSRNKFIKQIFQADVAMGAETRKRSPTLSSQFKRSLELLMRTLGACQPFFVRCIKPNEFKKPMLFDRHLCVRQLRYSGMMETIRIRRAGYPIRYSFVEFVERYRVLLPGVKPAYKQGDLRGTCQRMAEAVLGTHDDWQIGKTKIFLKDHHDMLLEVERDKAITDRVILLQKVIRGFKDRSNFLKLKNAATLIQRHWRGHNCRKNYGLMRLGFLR

Substance: calmodulin (from UniProt P0DP23 1-149) (natural protein)
- stoichiometry N (calmodulin per heavy chain): 1.53
